The target of data set [1] is T1, pmRPA-S33D (human, UniProt P27694;P15927;P35244 1-616;1-270;1-121, S33D;RPA32). Nature of the data set: EMSA; two shifted bands; EMSA: 50 mM Tris-HCl pH 7.5, 50 mM NaCl, 1 mM DTT, 0.01% Tween-20, 23°C, 10 nM labeled DNA; NSMF-DNA gels 1.5% agarose in 1xTBE at 4°C. The conditions noted are these: protein: recombinant; tags: 7xHis; copies: 1;1;1; label: 5' Cy5. For orientation: In EMSA bound probe runs differently from free probe, usually more slowly.

For data set [2], the target named is T2, RPA heterotrimer WT (RPA70/RPA32/RPA14) (human, UniProt P27694;P15927;P35244 1-616;1-270;1-121). Nature of the data set: EMSA; three shifted bands; EMSA: 50 mM Tris-HCl pH 7.5, 50 mM NaCl, 1 mM DTT, 0.01% Tween-20, 23°C, 10 nM labeled DNA; NSMF-DNA gels 1.5% agarose in 1xTBE at 4°C. The conditions noted are these: protein: recombinant; tags: untagged; 7xHis version also made; copies: 1;1;1; label: 5' Cy5.
T2 sequence (P27694 whole entry, chain 1 of 3): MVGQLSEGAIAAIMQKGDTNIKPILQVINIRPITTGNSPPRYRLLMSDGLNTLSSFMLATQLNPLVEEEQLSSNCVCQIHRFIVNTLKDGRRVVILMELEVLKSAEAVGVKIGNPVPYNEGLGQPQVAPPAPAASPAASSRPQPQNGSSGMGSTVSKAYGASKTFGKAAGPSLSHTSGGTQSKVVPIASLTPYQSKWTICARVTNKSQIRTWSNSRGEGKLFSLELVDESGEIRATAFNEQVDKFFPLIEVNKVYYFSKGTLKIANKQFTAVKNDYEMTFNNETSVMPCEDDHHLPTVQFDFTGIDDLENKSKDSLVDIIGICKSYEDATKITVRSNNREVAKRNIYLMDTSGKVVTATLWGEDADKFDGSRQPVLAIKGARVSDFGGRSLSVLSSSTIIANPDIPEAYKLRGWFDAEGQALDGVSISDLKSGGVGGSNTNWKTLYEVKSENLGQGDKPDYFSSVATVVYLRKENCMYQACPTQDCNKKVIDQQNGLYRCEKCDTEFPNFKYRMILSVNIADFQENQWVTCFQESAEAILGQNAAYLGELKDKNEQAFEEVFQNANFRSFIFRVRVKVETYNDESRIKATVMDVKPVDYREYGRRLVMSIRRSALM
T2 sequence (P15927 whole entry, chain 2 of 3): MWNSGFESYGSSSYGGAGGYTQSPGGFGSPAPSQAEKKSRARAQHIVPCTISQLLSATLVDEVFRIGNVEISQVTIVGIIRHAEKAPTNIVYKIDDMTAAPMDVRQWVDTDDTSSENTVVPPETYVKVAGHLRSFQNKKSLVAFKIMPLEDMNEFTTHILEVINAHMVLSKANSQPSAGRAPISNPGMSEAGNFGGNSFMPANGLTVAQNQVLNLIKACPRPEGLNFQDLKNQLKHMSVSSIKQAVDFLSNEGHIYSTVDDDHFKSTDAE
T2 sequence (P35244 whole entry, chain 3 of 3): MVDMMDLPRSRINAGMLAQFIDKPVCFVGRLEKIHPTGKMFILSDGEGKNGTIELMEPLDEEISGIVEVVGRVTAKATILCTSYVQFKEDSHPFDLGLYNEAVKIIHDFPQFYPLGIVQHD

The target in data set [3] is T3, RPA-eGFP heterotrimer (human, UniProt P27694;P15927;P35244 1-616;1-270;1-121). Nature of the data set: single-molecule photobleaching; three steps predominant; EMSA: 50 mM Tris-HCl pH 7.5, 50 mM NaCl, 1 mM DTT, 0.01% Tween-20, 23°C, 10 nM labeled DNA; NSMF-DNA gels 1.5% agarose in 1xTBE at 4°C. The conditions noted are these: protein: recombinant; tags: 6xHis; eGFP at C-term of RPA70; copies: 1;1;1; label: 5' biotin.
T3 sequence (P27694 whole entry, chain 1 of 3): as the sequence (P27694 whole entry, chain 1 of 3) above
T3 sequence (P15927 whole entry, chain 2 of 3): as the sequence (P15927 whole entry, chain 2 of 3) above
T3 sequence (P35244 whole entry, chain 3 of 3): as the sequence (P35244 whole entry, chain 3 of 3) above

In data set [4] the target is T3, RPA-eGFP heterotrimer. Nature of the data set: single-molecule photobleaching; two steps predominant; EMSA: 50 mM Tris-HCl pH 7.5, 50 mM NaCl, 1 mM DTT, 0.01% Tween-20, 23°C, 10 nM labeled DNA; NSMF-DNA gels 1.5% agarose in 1xTBE at 4°C. The conditions noted are these: protein: recombinant; tags: 6xHis; eGFP at C-term of RPA70; copies: 1;1;1; label: 5' biotin.
In data set [5] the target is T2, RPA heterotrimer WT (RPA70/RPA32/RPA14). Nature of the data set: EMSA; single shifted band; EMSA: 50 mM Tris-HCl pH 7.5, 50 mM NaCl, 1 mM DTT, 0.01% Tween-20, 23°C, 10 nM labeled DNA; NSMF-DNA gels 1.5% agarose in 1xTBE at 4°C. The conditions noted are these: protein: recombinant; tags: untagged; 7xHis version also made; copies: 1;1;1; label: 5' Cy5.
Data set [6] deals with T4, NSMF WT (UniProt Q6X4W1 1-530).
T4 sequence: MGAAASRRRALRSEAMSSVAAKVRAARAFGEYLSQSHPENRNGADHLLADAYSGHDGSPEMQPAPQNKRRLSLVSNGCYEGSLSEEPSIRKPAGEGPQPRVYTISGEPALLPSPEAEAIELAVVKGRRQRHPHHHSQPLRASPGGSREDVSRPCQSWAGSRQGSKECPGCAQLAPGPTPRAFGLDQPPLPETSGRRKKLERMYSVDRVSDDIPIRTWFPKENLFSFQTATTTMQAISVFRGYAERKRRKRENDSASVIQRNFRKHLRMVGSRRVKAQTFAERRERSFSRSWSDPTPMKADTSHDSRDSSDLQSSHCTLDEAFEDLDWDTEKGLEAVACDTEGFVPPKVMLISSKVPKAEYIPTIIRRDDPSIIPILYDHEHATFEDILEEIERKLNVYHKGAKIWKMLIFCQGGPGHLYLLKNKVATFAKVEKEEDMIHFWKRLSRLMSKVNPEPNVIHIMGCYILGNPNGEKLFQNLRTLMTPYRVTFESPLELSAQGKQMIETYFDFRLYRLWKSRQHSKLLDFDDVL
As to the kind of experiment: EMSA; low affinity; EMSA: 50 mM Tris-HCl pH 7.5, 50 mM NaCl, 1 mM DTT, 0.01% Tween-20, 23°C, 10 nM labeled DNA; NSMF-DNA gels 1.5% agarose in 1xTBE at 4°C. The conditions noted are these: protein: recombinant, tags: N-term 3xFLAG, C-term 10xHis (MBP cleaved).

The target in data set [7] is T4, NSMF WT. Nature of the data set: EMSA; up to 3000 nM NSMF; EMSA: 50 mM Tris-HCl pH 7.5, 50 mM NaCl, 1 mM DTT, 0.01% Tween-20, 23°C, 10 nM labeled DNA; NSMF-DNA gels 1.5% agarose in 1xTBE at 4°C. The conditions noted are these: protein: recombinant; tags: N-term 3xFLAG, C-term 10xHis (MBP cleaved); label: Cy3 on Oligo1, Cy5 on RNA oligo; bubble 1:2, RNA strand 3 paired to strand 2 in bubble.

The target of data set [8] is T1, pmRPA-S33D. As to the kind of experiment: EMSA; one shifted band; EMSA: 50 mM Tris-HCl pH 7.5, 50 mM NaCl, 1 mM DTT, 0.01% Tween-20, 23°C, 10 nM labeled DNA; NSMF-DNA gels 1.5% agarose in 1xTBE at 4°C. The conditions noted are these: protein: recombinant; tags: 7xHis; copies: 1;1;1; label: 5' Cy5.
The target in data set [9] is DBM-RPA (human, UniProt P27694;P15927;P35244 1-616;1-270;1-121, W107A;F135A;RPA32). Nature of the data set: EMSA; 25 nM; single molecule bound; EMSA: 50 mM Tris-HCl pH 7.5, 50 mM NaCl, 1 mM DTT, 0.01% Tween-20, 23°C, 10 nM labeled DNA; NSMF-DNA gels 1.5% agarose in 1xTBE at 4°C. The conditions noted are these: protein: recombinant; copies: 1;1;1; label: 5' Cy5.
DBM-RPA, sequence (P27694 whole entry, stated change not applied, chain 1 of 3): as the sequence (P27694 whole entry, chain 1 of 3) above
DBM-RPA, sequence (P15927 whole entry W107A/F135A, chain 2 of 3): as the sequence (P15927 whole entry, chain 2 of 3) above, with W107A, F135A counted along it
DBM-RPA, sequence (P35244 whole entry, stated change not applied, chain 3 of 3): as the sequence (P35244 whole entry, chain 3 of 3) above
Data set [10] has as its target T2, RPA heterotrimer WT (RPA70/RPA32/RPA14). As to the kind of experiment: EMSA; two shifted bands up to 150 nM RPA; EMSA: 50 mM Tris-HCl pH 7.5, 50 mM NaCl, 1 mM DTT, 0.01% Tween-20, 23°C, 10 nM labeled DNA; NSMF-DNA gels 1.5% agarose in 1xTBE at 4°C. The conditions noted are these: protein: recombinant; tags: untagged; 7xHis version also made; copies: 1;1;1; label: 5' Cy5.

The target in data set [11] is T3, RPA-eGFP heterotrimer. As to the kind of experiment: single-molecule fluorescence; EMSA: 50 mM Tris-HCl pH 7.5, 50 mM NaCl, 1 mM DTT, 0.01% Tween-20, 23°C, 10 nM labeled DNA; NSMF-DNA gels 1.5% agarose in 1xTBE at 4°C. The conditions noted are these: protein: recombinant; tags: 6xHis; eGFP at C-term of RPA70; copies: 1;1;1; label: 5' biotin.

T1 sequence (P27694 whole entry, stated change not applied, chain 1 of 3): as the sequence (P27694 whole entry, chain 1 of 3) above
T1 sequence (P15927 whole entry S33D, chain 2 of 3): as the sequence (P15927 whole entry, chain 2 of 3) above, with S33D counted along it
T1 sequence (P35244 whole entry, stated change not applied, chain 3 of 3): as the sequence (P35244 whole entry, chain 3 of 3) above

B1: 60-nt ssDNA (ssDNA)
DNA: TATTCATTGTTTTACCTATTGTACCTTATTCTTAATTCATTTTACTAATCATTTACGAGT
Consider B1, for which the binding result in [1] and in data set [2] was “binds” each time.

B2: Biotinylated 60-nt ssDNA (ssDNA)
DNA: TATTCATTGTTTTACCTATTGTACCTTATTCTTAATTCATTTTACTAATCATTTACGAGT
Turning to B2, the binding result in data set [3] is “binds”.

B3: Biotinylated 30-nt ssDNA (ssDNA)
DNA: TTTTTTTTTTTTTTTTTTTTTTTTTTTTTT
Take B3: the binding result in data set [4] is “binds”.

B4: 14-nt ssDNA (dT14) (ssDNA)
DNA: TTTTTTTTTTTTTT
Consider B4, for which the binding result in [5] is on record as “binds”.

B5: PTJ (primer-template junction) (mixed)
DNA 1: TGGCGACGGCAGCGAGGCAGGTCAGGAATTCTGATC
DNA 2: GATCAGAATTCCTGACCT
In the case of B5, the binding result in data set [6] (18 bp duplex, 5' overhang 18 nt on strand 1) is “binds”.

B6: R-loop (mixed)
DNA 1: GCCAGGGACGAGGTGAACCTGCAGGTGGGCGGCTACTACTTAGATGTCATCCGAGGCTTATTGGTAGAATTCGGCAGCGTCATGCGACGGC
DNA 2: GCCGTCGCATGACGCTGCCGAATTCTACCACGCGATTCATACCTGTCGTGCCAGCTGCTTTGCCCACCTGCAGGTTCACCTCGTCCCTGGC
RNA: GCAGCUGGCACGACAGGUAUGAAUC
Turning to B6, the binding result in [7] was “no binding”.

B7: Fork (Y-shape) (mixed)
DNA 1: GCCAGGGACGAGGTGAACCTGCAGGTGGGCGGCTACTACTTTTTTTTTTTTTTTTTTTTTTTTTTTTTTTTTTTTTTTT
DNA 2: TTTTTTTTTTTTTTTTTTTTTTTTTTTTTTTTTTTTTTTAGTAGTAGCCGCCCACCTGCAGGTTCACCTCGTCCCTGGC
For the molecule B7, in data set [6] (label: 5' Cy5 on strand 1, fork 1:2, two poly-dT arms), the binding result is “binds”.

B8: 30-nt ssDNA (dT30) (ssDNA)
DNA: TTTTTTTTTTTTTTTTTTTTTTTTTTTTTT
Consider B8, for which the binding result in [8], in data set [9] and in [10] was “binds” each time.

B9: Biotinylated 14-nt ssDNA (ssDNA)
DNA: TTTTTTTTTTTTTT
As to B9, the binding result in data set [11] is on record as “binds”.

For the origin of these results see publication PMC10450186.
